The subject of series [1] is HeLa Kyoto. Put plainly: solubility change mitosis vs G1/S (difference of NP-40 vs SDS log2 ratios) (log2 ratio difference); higher = more soluble in mitosis.
Series [2] deals with HeLa Kyoto. The experiment in a line: thermal stability score vs G1/S (z-score of summed log2 fold changes over temperatures); higher = more thermally stable than in G1/S.
Series [3] has as its system HeLa Kyoto. The experiment in a line: melting temperature (median over replicates), in situ; higher = more thermally stable.
The test system of series [4] is HeLa Kyoto. The experiment in a line: solubility in G1/S (NP-40 vs SDS abundance) (log2 ratio); higher = more soluble. Conditions: cell cycle stage: G1/S.
The mark [5] stands for this setting: cell cycle stage: early G1 (4.5 h after nocodazole release).
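For melting temperature (median over replicates), in situ in this document: HeLa Kyoto cells synchronized by double thymidine or nocodazole block, proteins quantified by TMT10plex mass spectrometry, three independent biological replicates.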
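For solubility change mitosis vs G1/S (difference of NP-40 vs SDS log2 ratios) in this document: synchronized HeLa Kyoto cells (double thymidine block for G1/S, nocodazole release for mitosis), protein amounts in NP-40 versus SDS lysates quantified by mass spectrometry, three biological replicates.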
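For solubility in G1/S (NP-40 vs SDS abundance) in this document: HeLa Kyoto cells arrested at G1/S by double thymidine block, proteins quantified by TMT10plex mass spectrometry in mild NP-40 versus SDS extracts, three biological replicates.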
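For thermal stability score vs G1/S (z-score of summed log2 fold changes over temperatures) in this document: synchronized HeLa Kyoto cells, proteins quantified by TMT10plex mass spectrometry, three biological replicates, mitosis taken 0.5 h after nocodazole release, G1/S directly after double thymidine block.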

“MERQVLLSEPEEAAALYRGLSRQPALSAACLGPEVTTQYGGQYRTVHTEWTQRDLERMENIRFCRQYLVFHDGDSVVFAGPAGNSVETRGELLSRESPSGTMKAVLRKAGGTGPGEEKQFLEVWEKNRKLKSFNLSALEKHGPVYEDDCFGCLSWSHSETHLLYVAEKKRPKAESFFQTKALDVSASDDEIARLKKPDQAIKGDQFVFYEDWGENMVSKSIPVLCVLDVESGNISVLEGVPENVSPGQAFWAPGDAGVVFVGWWHEPFRLGIRFCTNRRSALYYVDLIGGKCELLSDDSLAVSSPRLSPDQCRIVYLQYPSLIPHHQCSQLCLYDWYTKVTSVVVDVVPRQLGENFSGIYCSLLPLGCWSADSQRVVFDSAQRSRQDLFAVDTQVGTVTSLTAGGSGGSWKLLTIDQDLMVAQFSTPSLPPTLKVGFLPSAGKEQSVLWVSLEEAEPIPDIHWGIRVLQPPPEQENVQYAGLDFEAILLQPGSPPDKTQVPMVVMPHGGPHSSFVTAWMLFPAMLCKMGFAVLLVNYRGSTGFGQDSILSLPGNVGHQDVKDVQFAVEQVLQEEHFDASHVALMGGSHGGFISCHLIGQYPETYRACVARNPVINIASMLGSTDIPDWCVVEAGFPFSSDCLPDLSVWAEMLDKSPIRYIPQVKTPLLLMLGQEDRRVPFKQGMEYYRALKTRNVPVRLLLYPKSTHALSEVEVESDSFMNAVLWLRTHLGS [APEH]”: in the series on HeLa Kyoto [1], the “solubility change mitosis (log2)” value is -0.0981. Further, the figures for the thermal stability score in the series with HeLa Kyoto [2] (setting [5]) and in the series with HeLa Kyoto [2] (cell cycle stage: mitosis) were -2.58 and -2.38, respectively. Also, the melting temperature with HeLa Kyoto [3] (cell cycle stage: G1/S) was 58.5 °C; in the series with HeLa Kyoto [3] (cell cycle stage: mitosis) it was 59.4 °C. Moreover, the “solubility in G1/S (log2)” value with HeLa Kyoto [4] amounted to 0.11.
“MAAAPLKVCIVGSGNWGSAVAKIIGNNVKKLQKFASTVKMWVFEETVNGRKLTDIINNDHENVKYLPGHKLPENVVAMSNLSEAVQDADLLVFVIPHQFIHRICDEITGRVPKKALGITLIKGIDEGPEGLKLISDIIREKMGIDISVLMGANIANEVAAEKFCETTIGSKVMENGLLFKELLQTPNFRITVVDDADTVELCGALKNIVAVGAGFCDGLRCGDNTKAAVIRLGLMEMIAFARIFCKGQVSTATFLESCGVADLITTCYGGRNRRVAEAFARTGKTIEELEKEMLNGQKLQGPQTSAEVYRILKQKGLLDKFPLFTAVYQICYESRPVQEMLSCLQSHPEHT [GPD1L]”: in the series with HeLa Kyoto [1], the “solubility change mitosis (log2)” value was -0.126. The thermal stability score in the series with HeLa Kyoto [2] (setting [5]) is 0.464; in the series on HeLa Kyoto [2] (cell cycle stage: mitosis), -0.000421. Further, the melting temperature with HeLa Kyoto [3] (cell cycle stage: G1/S) came out at 53.2 °C; with HeLa Kyoto [3] (cell cycle stage: mitosis), 53 °C. Further, in the series with HeLa Kyoto [4], the “solubility in G1/S (log2)” value is 0.144.
Take “MAEQLSPGKAVDQVCTFLFKKPGRKGAAGRRKRPACDPEPGESGSSSDEGCTVVRPEKKRVTHNPMIQKTRDSGKQKAAYGDLSSEEEEENEPESLGVVYKSTRSAKPVGPEDMGATAVYELDTEKERDAQAIFERSQKIQEELRGKEDDKIYRGINNYQKYMKPKDTSMGNASSGMVRKGPIRAPEHLRATVRWDYQPDICKDYKETGFCGFGDSCKFLHDRSDYKHGWQIERELDEGRYGVYEDENYEVGSDDEEIPFKCFICRQSFQNPVVTKCRHYFCESCALQHFRTTPRCYVCDQQTNGVFNPAKELIAKLEKHRATGEGGASDLPEDPDEDAIPIT [RNF113A]”: in the series with HeLa Kyoto [1], the “solubility change mitosis (log2)” value came out at 0.0489. In addition, the thermal stability score in the series with HeLa Kyoto [2] (setting [5]) was -3.12; in the series on HeLa Kyoto [2] (cell cycle stage: mitosis), -4.15. Besides, the melting temperature with HeLa Kyoto [3] (cell cycle stage: G1/S) amounted to 55.6 °C; with HeLa Kyoto [3] (cell cycle stage: mitosis), 63.5 °C. The “solubility in G1/S (log2)” value with HeLa Kyoto [4] was determined as 0.17.

(Values after the supplement of paper PMC5998384.)
